The source of these data is patent WO2025026282A1 (dated 2025).

The target in assay [1] is T1, Human PD-L1 (human, UniProt Q9NZQ7 19-238, limits assumed).
T1 construct: Diluted to 2 ug/ml in KB buffer for BLI; construct not described
Description: BLI (Octet R8), human PD-L1.

Assay [2] deals with T2, human CD3 epsilon (human, UniProt P07766 23-126, limits assumed).
T2 construct: the same molecule is used here for both
The assay can be described thus: SPR (Biacore), antigen captured, antibody as analyte.

For assay [3], the target named is human CD64 (human, UniProt P12314 16-292, limits assumed). The assay can be described thus: BLI (Octet), human CD64. In general terms: BLI is a label-free optical method that tracks binding on a fibre tip over time.
The target in assay [4] is T3, human CD32 alpha (human, UniProt P12318 34-217, limits assumed).
T3 construct: also called FcgammaRII
T3 sequence (looked up): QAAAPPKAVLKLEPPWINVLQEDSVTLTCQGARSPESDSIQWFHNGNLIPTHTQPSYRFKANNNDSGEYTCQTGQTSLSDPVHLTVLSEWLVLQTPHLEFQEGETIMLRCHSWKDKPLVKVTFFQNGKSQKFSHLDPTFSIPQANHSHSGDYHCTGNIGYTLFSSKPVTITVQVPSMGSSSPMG
The assay can be described thus: BLI (Octet), human CD32 alpha.

Numbering of substitutions follows the chain as printed. Names may count otherwise.

T2 sequence (P07766 23-126 limits assumed): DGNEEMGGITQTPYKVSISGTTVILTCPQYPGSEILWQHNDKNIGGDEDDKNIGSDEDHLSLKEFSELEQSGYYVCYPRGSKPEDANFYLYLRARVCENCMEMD
T1 sequence (Q9NZQ7 19-238 limits assumed): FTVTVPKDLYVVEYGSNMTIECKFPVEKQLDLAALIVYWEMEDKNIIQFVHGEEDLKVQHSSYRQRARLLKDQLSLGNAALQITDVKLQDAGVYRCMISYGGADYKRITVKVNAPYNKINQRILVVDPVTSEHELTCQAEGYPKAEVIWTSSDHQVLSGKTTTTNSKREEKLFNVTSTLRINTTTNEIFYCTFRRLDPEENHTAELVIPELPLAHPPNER
human CD64, sequence (P12314 16-292 limits assumed): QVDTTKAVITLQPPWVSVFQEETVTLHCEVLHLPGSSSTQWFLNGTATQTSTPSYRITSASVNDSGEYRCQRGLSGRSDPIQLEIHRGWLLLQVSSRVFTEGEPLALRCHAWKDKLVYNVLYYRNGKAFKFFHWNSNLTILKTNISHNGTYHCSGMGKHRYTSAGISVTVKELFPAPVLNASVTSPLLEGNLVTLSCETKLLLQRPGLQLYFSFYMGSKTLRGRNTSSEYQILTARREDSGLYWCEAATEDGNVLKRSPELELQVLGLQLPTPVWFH

B1: 12A69 (other)
chain 1: QAVVTQEPSLTVSPGGTVTLTCRSSTGAVTTSNYANWVQQKPGQAPRGLIGGTNKRAPWTPARFSGSLLGGKAALTLSGAQAEDEADYYCALWYSNLWVFGGGTKLTVLRTVAAQVQLVQSGAEVKKPGSSVKVSCKTSGDTFSSYAISWVRDAPGQCLEWMGGIIPIFGKAHYAQKFQGRVTITADESTSTAYMELSSLRSEDTAVYFCARKFHFVSGSPFGMDVWGQGTTVTVSSASEPKSSDKTHTCPPCPAPPVAGPSVFLFPPKPKDTLMISRTPEVTCVVVDVSQEDPEVKFNWYVDGVEVHNAKTKPREEQFNSTYRVVSVLTVLHQDWLNGKEYKCKVSNKGLPSSIEKTISKAKGQPREPQVYTLPPSRDELTKNQVSLWCLVKGFYPSDIAVEWESNGQPENNYKTTPPVLDSDGSFFLYSKLTVDKSRWQQGNVFSCSVMHEALHNHYTQKSLSLSP
chain 2: EVQLVESGGGLVQPGGSLRLSCAASGFTFTDYYMNWVRQAPGKALEWLGFIRNKVNGDTTEYAASVKGRFTISRDDSKNSLYLQMNSLKTEDTAVYYCARDKGIAYYFDYWGQGTLVTVSSASTKGPSVFPLAPSSKSTSGGTAALGCLVKDYFPEPVTVSWNSGALTSGVHTFPAVLQSSGLYSLSSVVTVPSSSLGTQTYICNVNHKPSNTKVDKKVEPKSCDGGGGSGGGGSEIVLTQSPATLSLSPGERATLSCRASQSVSSYLAWYQKKPGQAPRLLIYDASNRATGIPARFSGSGSGTDFTLTISSLEPEDFAVYYCQQRSNAPTFGCGTKVEIKRTVAAEVQLVESGGGLVQPGGSLRLSCAASGFTFSTYAMNWVRQAPGKGLEWVGRIRSKYNNYATYYADSVKGRFTISRDDSKNSLYLQMNSLRAEDTAVYYCVRHGNFGTSYVSWFAYWGQGTLVTVSS
chain 3: EVQLVESGGGLVQPGGSLRLSCAASGFTFTDYYMNWVRQAPGKALEWLGFIRNKVNGDTTEYAASVKGRFTISRDDSKNSLYLQMNSLKTEDTAVYYCARDKGIAYYFDYWGQGTLVTVSSASTKGPSVFPLAPSSKSTSGGTAALGCLVKDYFPEPVTVSWNSGALTSGVHTFPAVLQSSGLYSLSSVVTVPSSSLGTQTYICNVNHKPSNTKVDKKVEPKSCDKTHTCPPCPAPPVAGPSVFLFPPKPKDTLMISRTPEVTCVVVDVSQEDPEVKFNWYVDGVEVHNAKTKPREEQFNSTYRVVSVLTVLHQDWLNGKEYKCKVSNKGLPSSIEKTISKAKGQPREPQVYTLPPSRDELTKNQVSLSCAVKGFYPSDIAVEWESNGQPENNYKTTPPVLDSDGSFFLVSKLTVDKSRWQQGNVFSCSVMHEALHNRFTQKSLSLSP
chain 4: EIVLTQSPATLSASPGERATLSCRASQSVSYIHWYQQKPGQSPRPWIHGTSNLATGVPARFSGSGSGTDFTLTISSLEPEDAAVYYCQQWSSNLSTFGGGTKVEIKRTVAAPSVFIFPPSDEQLKSGTASVVCLLNNFYPREAKVQWKVDNALQSGNSQESVTEQDSKDSTYSLSSTLTLSKADYEKHKVYACEVTHQGLSSPVTKSFNRGEC
In general, Kd refers to the free concentration of one partner at which half of the binding sites on the other are occupied at equilibrium, for simple one-to-one binding. As to B1, in assay [1], the Kd is 72.8 nM.

B2: 12A44 (other)
chain 1: B1 chain 1
chain 2: B1 chain 2 with A329W, K400Q
chain 3: B1 chain 3
chain 4: B1 chain 4
Take B2: the Kd in assay [2] is 118 nM.

B3: 12A39 (2:1:1 asymmetric tri-specific antibody, Type E structure, CEA x CD3 x PD-L1) (other)
chain 1: B1 chain 1
chain 2: B1 chain 2 with A329W
heavy: B1 chain 3
light: B1 chain 4
notes: Tri-specific antibody; also called polypeptide complex 12A39
Consider B3, for which the binding result in assay [3] is “binds”. In assay [4], this molecule returned a Kd of about 527 nM.

B4: 12A46 (other)
chain 1: B1 chain 1
chain 2: B1 chain 2 with A329W, V455A
heavy: B1 chain 3
light: B1 chain 4
notes: Kabat position; choice of chain inferred; also called V100C A (12A46)
For B4, binding in assay [2] was characterised by a dissociation constant (Kd) of 176 nM.
